Our source for the binding result and Kd values is patent US20230243070A1 (Molecular Partners, published 2023).

In assay [1] the target is T1, EBNApMHC (HLA-A*0201:EBNA-1), biotinylated recombinant complex (human; Epstein Barr virus). Briefly: SPR (ProteOn), biotinylated pMHC on NLC chip.
For assay [2], the target named is NYESOAApMHC (HLA-A*0201:NYESO1-9VAA), biotinylated recombinant complex (human). Nature of the assay: SPR (ProteOn), biotinylated pMHC on NLC chip.
Assay [3] addresses T2, NYESOpMHC (HLA-A*0201:NYESO1-9V), biotinylated recombinant complex (human).
T2 construct: also called NY-ESO-1 peptide-MHC complex
Nature of the assay: SPR (ProteOn), biotinylated pMHC on NLC chip, PBS with Tween.

The target in assay [4] is T1, EBNApMHC (HLA-A*0201:EBNA-1), …. Nature of the assay: ribosome display selection, crude extract HTRF.

B1: DARPin® protein #23 (designed binder)
chain: MRGSHHHHHHGSDLGIKLLYAANSGQDDEVRILLAAGADVNAKDEYGDTPLHKAAEYGHLEIVEVLLKAGADVNAKDVYGITPLHLAAIFGHLEIVEVLLKAGADVNAQDKKGHTPADLAAFVGHEDIAEVLQKAA
As to B1, the binding result in assay [1] is “no binding (tested: 3.7 nM to 300 nM, or 250 nM single trace)”; in assay [2], “no binding”. Also, the equilibrium dissociation constant (Kd) in assay [3] turned out to be 0.0939 nM.

B2: SEQ ID NO 99 (designed binder)
chain: GSDLGAKLLFAAILGQDDEVRILLAAGADVNAKDETGHTPLHHAAHYGHLEIVEVLLKAGADVNAKDQYGFTPLHLAAYYGHLEIVEVLLKAGADVNAQDDDGITPADLAAAHGHEDIAEVLQKAA
Turning to B2, the binding result in assay [4] is reported as “binds”.

B3: DARPin® protein #32 (designed binder)
chain: MRGSHHHHHHGSDLGKKLLQAARAGQLDEVRELLKAGADVNAKDYFGSTPLHLAQLGHLEIVEVLLKAGADVNAKDYQGHTPLHVDAFHGHLEIVEVLLKAGADVNAKDQWGVTPLHLAAEWGHLEIVEVLLKAGADVNAQDKSGKTPADLAARAGHQDIAEVLQKAA
On to B3, for which the binding result is listed as “no binding (tested: 3.7 nM to 300 nM, or 250 nM single trace)” in assay [1] and “no binding” in assay [2]. Also, the Kd in assay [3] came to 1.63 nM.

B4: SEQ ID NO 94 (designed binder)
chain: GSDLGQKLLEAARKGQDDEVRELLKAGADVNAKDKAGWTPLHLAAYFGHLEIVEVLLKAGADVNAKDVIGWTPLHLAAWQGHLEIVEVLLKAGADVNAQDLKGQTPADLAAQEGNEDIAEVLQKAA
On to B4, for which the binding result in assay [4] is listed as “binds”.

B5: SEQ ID NO 103 (designed binder)
chain: GSDLGNKLLWAAYQGQDDEVRILLAAGADVNAKDYLGWTPLHIAATSGHLEIVEVLLKAGADVNAKDWYGYTPLHLAAEWGHLEIVEVLLKAGADVNAQDKSGKTPADLAADSGHEDIAEVLQKAA
B5: in assay [4], the binding result is listed as “binds”.

B6: DARPin® protein #30 (designed binder)
chain: MRGSHHHHHHGSDLGKKLLQAARAGQLDEVRELLKAGADVNAKDRFGIPLHIAASQGHLEIVEVLLKAGADVNAKDHWGETPLHLAAVFGHLEIVEVLLKAGADVNAKDHTGQTPLHLAAYLGHLEIVEVLLKAGADVNAQDKSGKTPADLAARAGHQDIAEVLQKAA
Regarding B6, the binding result in assay [1] is on record as “no binding (tested: 3.7 nM to 300 nM, or 250 nM single trace)”; in assay [2] it was “no binding”. Besides, in assay [3], the Kd was determined as 2.33 nM.

B7: SEQ ID NO 98 (designed binder)
chain: GSDLGDKLLFAAELGQDDEVRILLAAGADVNAKDSFGQTPLHRVAANHGHLEIVEVLLKAGADVNAKDSSGHTPLHVAALTGHLEIVEVLLKAGADVNAQDESGFTPADLAADVGHEDIAEVLQKAA
For B7, the binding result in assay [4] was “binds”.

B8: SEQ ID NO 110 (designed binder)
chain: GSDLGKKLLQAARAGQLDEVRELLKAGADVNAKDAAGWTPLHLAAAEGHLEIVEVLLKAGADVNAKDVVGQTPLHVAAVIGHLEIVEVLLKAGADVNAKDSAGYTPLHLAAREGHLEIVEVLLKAGADVNAQDKSGKTPADLAARAGHQDIAEVLQKAA
As for B8, in assay [4], the binding result was “binds”.

B9: SEQ ID NO 96 (designed binder)
chain: GSDLGKKLLQAARAGQLDEVRELLKAGADVNAKDLTGITPLHIAAREGHLEIVEVLLKAGADVNAKDAWGFTPLHVAAWTGHLEIVEVLLKAGADVNAKDLLGETPLHLAAEAGHLEIVEVLLKAGADVNAQDKSGKTPADLAARAGHQDIAEVLQKAA
Consider B9, for which, in assay [4], the binding result was “binds”.

B10: SEQ ID NO 109 (designed binder)
chain: GSDLGKKLLQAARAGQLDEVRELLKAGADVNAKDLSGVTPLHIAARSGHLEIVEVLLKAGADVNAKDAWGYTPLHVAAEHGHLEIVEVLLKAGADVNAKDHLGSTPLHIAASHGHLEIVEVLLKAGADVNAQDKSGKTPADLAARAGHQDIAEVLQKAA
Take B10: in assay [4], the binding result is “binds”.

B11: SEQ ID NO 107 (designed binder)
chain: GSDLGKKLLQAARAGQLDEVRELLKAGADVNAKDLTGITPLHVAARSGHPEIVEVLLKAGADVNAKDAWGFTPLHVAAYKGHLEIVEVLLKAGADVNAKDQLGETPLHLAAAEGHLEIVEVLLKAGADVNAQDKSGKTPADLAARAGHQDIAEVLQKAA
In the case of B11, the binding result in assay [4] is “binds”.

B12: SEQ ID NO 108 (designed binder)
chain: GSDLGKKLLQAARAGQLDEVRELLKAGADVNAKDQTGWTPLHIAAHTGHLEIVEVLLKAGADVNAKDAVGFTPLHVAAWSGHLEIVEVLLKDGADVNAKDTSGATPLHLAAEWGHLEIVEVLLKAGADVNAQDKSGKTPADLAARAGHQDIAEVLQKAA
As for B12, the binding result in assay [4] is “binds”.

B13: SEQ ID NO 106 (designed binder)
chain: GSDLGKKLLQAARAGQLDEVRELLKAGADVNAKDLAGVTPLHVAARAGHLEIVEVLLKAGADVNAKDAWGFTPLHIAAYQGHLEIVEVLLKAGADVNAKDLLGSTPLHVAAETGHLEIVEVLLKAGADVNAQDKSGKTPADLAARAGHLDIAEVLQKAA
For B13, the binding result in assay [4] was “binds”.

B14: SEQ ID NO 104 (designed binder)
chain: GSDLGQKLLQAAQLGQDDEVRELLKAGADVNAKDTFGQTPLHPAAWSGHLEIVEVLLKAGADVNAKDKWGVTPLHLAAVSGHLEIVEVLLKAGADVNAQDLEGRTPADLAAKQGHEDIAEVLQKAA
In the case of B14, the binding result in assay [4] is recorded as “binds”.

B15: SEQ ID NO 95 (designed binder)
chain: GSDLGQKLLRAAQAGQDDEVRELLKAGADVNAKDEVGWTPLHLAAAWGHLEIVEVLLKAGADVNAKDHFGITPLHVAAELGHLEIVEVLLKAGADVNAQDLAGRAPADLAALEGHEDIAEVLQKAA
Consider B15, for which the binding result in assay [4] is on record as “binds”.

B16: SEQ ID NO 100 (designed binder)
chain: GSDLGSKLLQAAAVGQDDEVRILLAAGADVNAKDDFGETPLHLAAWHGHLEIVEVLLKAGADVNAKDEQGFTPLHWAALTGHLEIVEVLLKAGADVNAQDKQGITPADLAANAGHEDIAEVLQKAA
On to B16, for which, in assay [4], the binding result is given as “binds”.

B17: SEQ ID NO 93 (designed binder)
chain: GSDLGTKLLFAATLGQDDEVRILLAAGADVNAKDTIGRTPLHVAAHYGHLEIVEVLLKAGADVNAKDIYGFTPLHLAAYFGHLEIVEVLLKAGADVNAQDKTGKTPADLAAVIGHEDIAEVLQKAA
On to B17, for which the binding result in assay [4] is recorded as “binds”.

B18: SEQ ID NO 105 (designed binder)
chain: GSDLGKKLLQAARAGQLDEVRELLKAGADVNAKDQEGRTPLHIAAAHGHLEIVEVLLKAGADVNAKDAYGYTPLHLAAFIGHLEIVEVLLKAGAEVNAKDKYGETPLHIAALTGHLEIVEVLLKAGADVNAQDKSGKTPADLAARAGHQDIAEVLQKAA
For the molecule B18, the binding result in assay [4] is “binds”.

B19: SEQ ID NO 102 (designed binder)
chain: GSDLGHKLLIAAYLGQDDEVRILLAAGADVNAKDDFGITPLHVAAQVGHLEIVEVLLKAGADVNAKDKSGLTPLHLAAYYGHLEIVEDLLKAGADVNAQDYSGETPADLAASLGHEDIAEVLQKAA
Regarding B19, the binding result in assay [4] is “binds”.

B20: SEQ ID NO 101 (designed binder)
chain: GSDLGEKLLAAALVGQDDEVRILLAVGADVNAKDVAGRTPLHRAALAGHLEIVEVLLKAGADVNAKDQSGFTPLHLAAVDGHLEIVEVLLKAGADVNAQDEIGATPADLAARIGHEDIAEVLQKAA
Turning to B20, in assay [4], the binding result is given as “binds”.

B21: DARPin® protein #24 (designed binder)
chain: MRGSHHHHHHGSDLGEKLLYAAFYGQDDEVRILLTAGADVNAKDKYGLTPLHRAATHGHLEIVEVLLKAGADVNAKDEWGTTPLHIAAIFGHLEIVEVLLKAGADVNAQDEQGNTPADLAAVIGHEDIAEVLQKAA
Turning to B21, the binding result in assay [1] is reported as “no binding (tested: 3.7 nM to 300 nM, or 250 nM single trace)”; in assay [2] it was “no binding”. Besides, in assay [3], the Kd is 0.939 nM.

B22: SEQ ID NO 97 (designed binder)
chain: GSDLGKKLLQAARAGQLDEVRELLKADADVNAKDTWGYTPLHLAAFHGHLEIVEVLLKAGADVNAKDELGKTPLHLAAYVGPLEIVEVLLKAGADVNAKDQHGYTPLHIAAAYGHLEIVEVLLKAGADVNAQDKSGKTPADLAARAGHQDIAEVLQKAA
Regarding B22, the binding result in assay [4] was “binds”.

B23: DARPin® protein #29 (designed binder)
chain: MRGSHHHHHHGSDLGKKLLQAARAGQLDEVRELLKAGADVNAKDRAGSTPLHLAAFRGHLEIVEVLLKAGADVNAKDAAGYTPLHLAALYGHLEIVEVLLKAGADVNAKDHAGSTPLHLAALAGHLEIVEVLLKAGADVNAQDKSGKTPADLAARAGHQDIAEVLQKAA
Regarding B23, the binding result in assay [1] was “no binding (tested: 3.7 nM to 300 nM, or 250 nM single trace)”; in assay [2] it was “no binding”. Besides, the Kd in assay [3] came out at 0.635 nM.

B24: DARPin® protein #33 (designed binder)
chain: MRGSHHHHHHGSDLGKKLLQAARAGQLDEVRELLKAGADVNAKDAIGQTPLHLAAFRGHLEIVEVLLKAGADVNAKDVAGWTPLHIAAAYGHLEIVEVLLKAGADVNAKDAYGQTPLHLAAFQGHLEIVEVLLKAGADVNAQDKSGKTPADLAARAGHQDIAEVLQKAA
As for B24, the binding result in assay [1] was “no binding (tested: 3.7 nM to 300 nM, or 250 nM single trace)”; in assay [2] it was “no binding”. For the same molecule, the Kd in assay [3] was 0.108 nM.

B25: DARPin® protein #31 (designed binder)
chain: MRGSHHHHHHGSDLGKKLLQAARAGQLDEVRELLKAGADVNAKDATGQTPLHVAAFRGHLEIVEVLLKAGADVNAKDKAGYTPLHIAAYAGHLEIVEVLLKAGADVNAKDHAGWTPLHLAAILGHLEIVEVLLKAGADVNAQDKSGKTPADLAARAGHQDIAEVLQKAA
Regarding B25, the binding result in assay [1] is recorded as “no binding (tested: 3.7 nM to 300 nM, or 250 nM single trace)”; in assay [2], “no binding”. Also, in assay [3], the Kd was 1.32 nM.
